Experimental data: patent US20110091463A1 (AbbVie / Abbott, published 2011)
Substitutions are numbered along the chain they refer to.

Tests used:
IL-1β (MRC5 bioassay) = assay: cell-based or functional assay
[1] = target: NGF (Neuroscreen-1 bioassay); assay: cell-based or functional assay
Recombinant Human IL-1β = target: T1, Recombinant Human IL-1β (human, UniProt P01584 117-269); assay: SPR (Biacore), DVD-Ig captured on chip, antigen injected, 25 C
T1 construct: Bought reagent; also called IL-1b; Il-1b
Procedure: The BIACORE assay (Biacore, Inc, Piscataway, N.J.) determines the affinity of antibodies or DVD-Ig with kinetic measurements of on-rate and off-rate constants. Binding of antibodies or DVD-Ig to a target antigen (for example, a purified recombinant target antigen) is determined by surface plasmon resonance-based measurements with a Biacore® 1000 or 3000 instrument (Biacore® AB, Uppsala, Sweden) using running HBS-EP (10 mM HEPES [pH 7.4], 150 mM NaCl, 3 mM EDTA, and 0.005% surfactant P20) at 25° C. All chemicals are obtained from Biacore® AB (Uppsala, Sweden) or otherwise from a different source as described in the text. For example, approximately 5000 RU of goat anti-mouse IgG, (Fcγ), fragment specific polyclonal antibody (Pierce Biotechnology Inc, Rockford, Ill.) diluted in 10 mM sodium acetate (pH 4.5) is directly immobilized across a CM5 research grade biosensor chip using a standard amine coupling kit according to manufacturer's instructions and procedures at 25 μg/ml. Unreacted moieties on the biosensor surface are blocked with ethanolamine. Modified carboxymethyl dextran surface in flowcell 2 and 4 is used as a reaction surface. Unmodified carboxymethyl dextran without goat anti-mouse IgG in flow cell 1 and 3 is used as the reference surface. For kinetic analysis, rate equations derived from the 1:1 Langmuir binding model are fitted simultaneously to association and dissociation phases of all eight injections (using global fit analysis) with the use of Biaevaluation 4.0.1 software. Purified antibodies or DVD-Ig are diluted in HEPES-buffered saline for capture across goat anti-mouse IgG specific reaction surfaces. […] The association and dissociation rate constants, kₒₙ (M⁻¹ s⁻¹) and koff (s⁻¹) are determined under a continuous flow rate of 25 μl/min. […] The equilibrium dissociation constant (M) of the reaction between antibodies or DVD-Igs and the target antigen is then calculated from the kinetic rate constants by the following formula: KD=koff/kₒₙ. Binding is recorded as a function of time and kinetic rate constants are calculated.

IL-6R on TF-1 cells = target: T2, IL-6R on TF-1 cells (UniProt P08887 20-468, limits assumed); assay: cell-based or functional assay
T2 sequence (looked up): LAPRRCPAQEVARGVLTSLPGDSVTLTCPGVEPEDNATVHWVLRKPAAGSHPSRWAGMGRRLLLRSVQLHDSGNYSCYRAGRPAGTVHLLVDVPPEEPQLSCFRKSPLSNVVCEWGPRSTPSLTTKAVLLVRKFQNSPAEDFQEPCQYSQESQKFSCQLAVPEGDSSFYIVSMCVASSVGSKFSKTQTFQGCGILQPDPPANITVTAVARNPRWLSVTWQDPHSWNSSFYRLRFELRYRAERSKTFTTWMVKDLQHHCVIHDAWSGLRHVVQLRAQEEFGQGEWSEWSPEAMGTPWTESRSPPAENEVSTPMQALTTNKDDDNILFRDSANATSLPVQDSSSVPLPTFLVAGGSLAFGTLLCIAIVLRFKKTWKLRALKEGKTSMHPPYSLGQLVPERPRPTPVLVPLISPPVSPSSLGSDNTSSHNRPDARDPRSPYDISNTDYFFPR

[2] = target: T3, Recombinant Human IL-6 sR (human, UniProt P08887 20-358, limits assumed); assay: SPR (Biacore), antibody captured on chip, antigen injected, 25 C
T3 construct: Bought soluble receptor ('sR'); also called IL-6R
T3 sequence (looked up): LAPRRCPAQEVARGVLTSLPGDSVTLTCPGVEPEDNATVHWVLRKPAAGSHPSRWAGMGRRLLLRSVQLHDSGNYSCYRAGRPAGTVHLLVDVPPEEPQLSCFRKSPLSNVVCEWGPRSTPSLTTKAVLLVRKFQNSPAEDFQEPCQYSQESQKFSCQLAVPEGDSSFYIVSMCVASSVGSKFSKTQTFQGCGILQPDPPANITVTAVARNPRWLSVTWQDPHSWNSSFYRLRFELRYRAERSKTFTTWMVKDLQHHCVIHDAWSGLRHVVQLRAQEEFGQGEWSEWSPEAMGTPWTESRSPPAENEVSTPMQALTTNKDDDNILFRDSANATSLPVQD
Procedure: (§1) The BIACORE assay (Biacore, Inc, Piscataway, N.J.) determines the affinity of antibodies or DVD-Ig with kinetic measurements of on-rate and off-rate constants. Binding of antibodies or DVD-Ig to a target antigen (for example, a purified recombinant target antigen) is determined by surface plasmon resonance-based measurements with a Biacore® 1000 or 3000 instrument (Biacore® AB, Uppsala, Sweden) using running HBS-EP (10 mM HEPES [pH 7.4], 150 mM NaCl, 3 mM EDTA, and 0.005% surfactant P20) at 25° C. All chemicals are obtained from Biacore® AB (Uppsala, Sweden) or otherwise from a different source as described in the text. For example, approximately 5000 RU of goat anti-mouse IgG, (Fcγ), fragment specific polyclonal antibody (Pierce Biotechnology Inc, Rockford, Ill.) diluted in 10 mM sodium acetate (pH 4.5) is directly immobilized across a CM5 research grade biosensor chip using a standard amine coupling kit according to manufacturer's instructions and procedures at 25 μg/ml. Unreacted moieties on the biosensor surface are blocked with ethanolamine. Modified carboxymethyl dextran surface in flowcell 2 and 4 is used as a reaction surface. Unmodified carboxymethyl dextran without goat anti-mouse IgG in flow cell 1 and 3 is used as the reference surface. For kinetic analysis, rate equations derived from the 1:1 Langmuir binding model are fitted simultaneously to association and dissociation phases of all eight injections (using global fit analysis) with the use of Biaevaluation 4.0.1 software. Purified antibodies or DVD-Ig are diluted in HEPES-buffered saline for capture across goat anti-mouse IgG specific reaction surfaces. Antibodies or DVD-Ig to be captured as a ligand (25 μg/ml) are injected over reaction matrices at a flow rate of 5 μl/min. The association and dissociation rate constants, kₒₙ (M⁻¹ s⁻¹) and koff (s⁻¹) are determined under a continuous flow rate of 25 μl/min. Rate constants are derived by making kinetic binding measurements at different antigen concentrations ranging from 10-200 nM. The equilibrium dissociation constant (M) of the reaction between antibodies or DVD-Igs and the target antigen is then calculated from the kinetic rate constants by the following formula: KD=koff/kₒₙ. Binding is recorded as a function of time and kinetic rate constants are calculated.

Recombinant Human β-NGF = target: T4, Recombinant Human β-NGF (human, UniProt P01138 122-241); assay: as above
T4 construct: Bought reagent
Procedure: as §1

Chain of NGF (Neuroscreen-1 bioassay) (P01138 122-241): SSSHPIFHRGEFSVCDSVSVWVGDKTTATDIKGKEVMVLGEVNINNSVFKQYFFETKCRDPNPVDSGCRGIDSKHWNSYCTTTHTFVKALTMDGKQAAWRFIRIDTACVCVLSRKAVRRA
T4 sequence (P01138 122-241 limits assumed): as the sequence (P01138 122-241) above
Chain of IL-1β (MRC5 bioassay) (P01584 117-269): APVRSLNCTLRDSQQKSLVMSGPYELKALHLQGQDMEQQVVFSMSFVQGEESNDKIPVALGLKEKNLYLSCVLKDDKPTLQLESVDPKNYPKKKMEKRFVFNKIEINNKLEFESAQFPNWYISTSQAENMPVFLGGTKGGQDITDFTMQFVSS

B1: DVD950 (bispecific antibody, human IgG1, kappa)
heavy: not shown
light: DIQMTQSPSSLSASVGDRVTITCRASGNIHNYLTWYQQTPGKAPKLLIYNAKTLADGVPSRFSGSGSGTDYTFTISSLQPEDIATYYCQHFWSIPYTFGQGTKLQITTVAAPDIQMTQSPSSLSASVGDRVTITCRASEDIYNALAWYQQKPGKAPKLLIYNTDTLHTGVPSRFSGSGSGTDYTLTISSLQPEDFATYFCQHYFHYPRTFGQGTKVEIKRTVAAPSVFIFPPSDEQLKSGTASVVCLLNNFYPREAKVQWKVDNALQSGNSQESVTEQDSKDSTYSLSSTLTLSKADYEKHKVYACEVTHQGLSSPVTKSFNRGEC
notes: DVD-Ig; also called DVD950H; DVD950L
C-Terminal VD IL-1β Neutralization Assay EC50 nM (IL-8 release by MRC5 cells) (IL-1β (MRC5 bioassay)): 26 nM
C-Terminal VD NGF Inhibition Assay EC50 pM (ERK1/2 phosphorylation in Neuroscreen-1 cells) [1]: 316 pM
Kd (Recombinant Human IL-1β): 0.495 nM
koff (Recombinant Human IL-1β): 0.000487 s⁻¹
kon (Recombinant Human IL-1β): 983000 M⁻¹ s⁻¹

B2: DVD933 (bispecific antibody, human IgG1, kappa)
heavy: not shown
light: DIQMTQSPSSLSASVGDRVTITCRASEDIYNALAWYQQKPGKAPKLLIYNTDTLHTGVPSRFSGSGSGTDYTLTISSLQPEDFATYFCQHYFHYPRTFGQGTKVEIKRTVAAPDVLMTQTPLSLPVTPGEPASISCTSSQNIVHSNGNTYLEWYLQKPGQSPQLLIYKVSNRFSGVPDRFSGSGSGTDFTLKISRVEAEDVGVYYCFQVSHVPYTFGGGTKVEIKRTVAAPSVFIFPPSDEQLKSGTASVVCLLNNFYPREAKVQWKVDNALQSGNSQESVTEQDSKDSTYSLSSTLTLSKADYEKHKVYACEVTHQGLSSPVTKSFNRGEC
N-Terminal VD NGF Inhibition Assay EC50 pM (ERK1/2 phosphorylation in Neuroscreen-1 cells) [1]: 49 pM

B3: DVD1207 (bispecific antibody, human IgG1, kappa)
heavy: not shown
light: DIQMTQSPSSLSASVGDRVTITCRASQDISSYLNWYQQKPGKAPKLLIYYTSRLHSGVPSRFSGSGSGTDFTFTISSLQPEDIATYYCQQGNTLPYTFGQGTKVEIKRTVAAPDIQMTQSPSSLSASVGDRVTITCRASEDIYNALAWYQQKPGKAPKLLIYNTDTLHTGVPSRFSGSGSGTDYTLTISSLQPEDFATYFCQHYFHYPRTFGQGTKVEIKRTVAAPSVFIFPPSDEQLKSGTASVVCLLNNFYPREAKVQWKVDNALQSGNSQESVTEQDSKDSTYSLSSTLTLSKADYEKHKVYACEVTHQGLSSPVTKSFNRGEC
N-Terminal VD IL-6 Inhibition Assay EC50 µM (IL-6 induced pSTAT3 in TF-1 cells) (IL-6R on TF-1 cells): 0.089 µM
C-Terminal VD NGF Inhibition Assay EC50 pM (ERK1/2 phosphorylation in Neuroscreen-1 cells) [1]: > 5000 pM

B4: DVD934 (bispecific antibody, human IgG1, kappa)
heavy: not shown
light: DVLMTQTPLSLPVTPGEPASISCTSSQNIVHSNGNTYLEWYLQKPGQSPQLLIYKVSNRFSGVPDRFSGSGSGTDFTLKISRVEAEDVGVYYCFQVSHVPYTFGGGTKVEIKRTVAAPDIQMTQSPSSLSASVGDRVTITCRASEDIYNALAWYQQKPGKAPKLLIYNTDTLHTGVPSRFSGSGSGTDYTLTISSLQPEDFATYFCQHYFHYPRTFGQGTKVEIKRTVAAPSVFIFPPSDEQLKSGTASVVCLLNNFYPREAKVQWKVDNALQSGNSQESVTEQDSKDSTYSLSSTLTLSKADYEKHKVYACEVTHQGLSSPVTKSFNRGEC
C-Terminal VD NGF Inhibition Assay EC50 pM (ERK1/2 phosphorylation in Neuroscreen-1 cells) [1]: > 5000 pM

B5: AB054 (antibody, V domains shown)
VH: EVQLQESGPGLVRPSQTLSLTCTVSGYSITSDHAWSWVRQPPGRGLEWIGYISYSGITTYNPSLKSRVTMLRDTSKNQFSLRLSSVTAADTAVYYCARSLARTTAMDYWGQGSLVTVSS
VL: DIQMTQSPSSLSASVGDRVTITCRASQDISSYLNWYQQKPGKAPKLLIYYTSRLHSGVPSRFSGSGSGTDFTFTISSLQPEDIATYYCQQGNTLPYTFGQGTKVEIKR
notes: Parent antibody; also called IL-6R parent antibody; AB054VH
IL-6 Inhibition Assay EC50 µM (IL-6 induced pSTAT3 in TF-1 cells) (IL-6R on TF-1 cells): 0.07 µM
Kd [2]: 0.614 nM
koff [2]: 0.000206 s⁻¹
kon [2]: 336000 M⁻¹ s⁻¹

B6: AB020 (antibody, V domains shown)
VH: QVQLQESGPGLVKPSETLSLTCTVSGFSLIGYDLNWIRQPPGKGLEWIGIIWGDGTTDYNSAVKSRVTISKDTSKNQFSLKLSSVTAADTAVYYCARGGYWYATSYYFDYWGQGTLVTVSS
VL: B5 VL with D28S, S31N, Y32N, L54F, G91E, N92H, V104L
notes: Parent antibody; also called AB020VH
Kd (Recombinant Human β-NGF): 6.73 pM
koff (Recombinant Human β-NGF): 4.08e-06 s⁻¹
kon (Recombinant Human β-NGF): 606000 M⁻¹ s⁻¹

B7: DVD949 (bispecific antibody, human IgG1, kappa)
heavy: not shown
light: DIQMTQSPSSLSASVGDRVTITCRASEDIYNALAWYQQKPGKAPKLLIYNTDTLHTGVPSRFSGSGSGTDYTLTISSLQPEDFATYFCQHYFHYPRTFGQGTKVEIKRTVAAPDIQMTQSPSSLSASVGDRVTITCRASGNIHNYLTWYQQTPGKAPKLLIYNAKTLADGVPSRFSGSGSGTDYTFTISSLQPEDIATYYCQHFWSIPYTFGQGTKLQITTVAAPSVFIFPPSDEQLKSGTASVVCLLNNFYPREAKVQWKVDNALQSGNSQESVTEQDSKDSTYSLSSTLTLSKADYEKHKVYACEVTHQGLSSPVTKSFNRGEC
N-Terminal VD IL-1β Neutralization Assay EC50 nM (IL-8 release by MRC5 cells) (IL-1β (MRC5 bioassay)): 0.148 nM
N-Terminal VD NGF Inhibition Assay EC50 pM (ERK1/2 phosphorylation in Neuroscreen-1 cells) [1]: 55 pM
